From patent US20220153859A1 (ANOKION, published 2022) come the findings set out here.

For assay [1], the target named is T1, Cynomolgus glycophorin A on cynomolgus erythrocytes (cynomolgus monkey).
T1 construct: whole, on cells; also called cyno GPA; cyno erythrocytes
Kind of assay: FACS (flow cytometry) on cynomolgus erythrocytes (cRBCs). In outline:
(§1)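 Flow cytometry was used to measure Fab binding to human or cynomolgus erythrocytes, and this binding is reported as EC50. The Fabs had been picked through next-generation-sequencing enrichment and phage ELISA screens, then expressed in soluble form in HEK cells, with the top-ranking ones purified on CH1 resin.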
(In general: Flow cytometry measures light scatter and fluorescence of single cells or particles in a stream.)

In assay [2] the target is T2, Human glycophorin A on human erythrocytes (human, UniProt P02724 20-150).
T2 construct: whole, on cells; Target of the flow cytometry assays on human erythrocytes; also called human GPA; hGPA
T2 sequence (looked up): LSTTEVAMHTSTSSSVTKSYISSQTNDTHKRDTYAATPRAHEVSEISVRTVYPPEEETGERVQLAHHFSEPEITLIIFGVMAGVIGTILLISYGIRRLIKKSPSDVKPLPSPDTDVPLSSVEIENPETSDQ
As to the kind of experiment: FACS (flow cytometry) on human erythrocytes (hRBCs). The method in brief: as §1

Assay [3] deals with T3, Human glycophorin A extract (hGPA extract) (human, UniProt P02724 20-150).
T3 construct: also called human GPA extracted from red blood cells (extract)
T3 sequence (looked up): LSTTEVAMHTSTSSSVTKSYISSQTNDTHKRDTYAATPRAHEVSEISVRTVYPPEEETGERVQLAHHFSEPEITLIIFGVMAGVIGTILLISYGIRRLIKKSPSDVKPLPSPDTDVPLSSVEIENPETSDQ
As to the kind of experiment: Biacore SPR, hGPA extract, apparent KD. A general note: Surface plasmon resonance follows binding to a sensor surface in real time, without labels.

Assay [4] concerns the target T3, Human glycophorin A extract (hGPA …). As to the kind of experiment: Octet BLI, hGPA extract, apparent. A general note: Biolayer interferometry detects binding as a change in optical thickness at a sensor tip.
Assay [5] has the same target. As to the kind of experiment: Biacore SPR, hGPA extract, apparent.
Assay [6] shares this target. As to the kind of experiment: Octet BLI, hGPA extract, apparent KD.
The target in assay [7] is T2, Human glycophorin A on human …. As to the kind of experiment: flow cytometry (FACS) on human erythrocytes, soluble Fab.

B1: CDRL2_18 (Fab, V domains shown)
VH: QVQLVQSGAEVKKPGASVKVSCTASGFNIKDTYMLWVRQAPGQGLEWMGRIDPANANSRYDPKFQGRVTITADTSTNTAYMELSSLRSEDTAVYYCVDGYMFAYWGQGTLVTVSS
VL: DVVMTQTPLSLSVTPGQPASISCKSSQSLLYSNGKTYLHWLLQKPGQSPQRLIYLLNRLHSGVPDRFSGSGSGTDFTLKISRVEAEDVGVYYCVQGTHFPLTFGQGTKLEIKR
notes: copies: 1 + 1
On to B1, for which the results for the EC50 in assay [1] and in assay [2] were 8.3 nM and 2.5 nM, respectively.

B2: CDRL2_33 (Fab, V domains shown)
VH: QVQLVQSGAEVKKPGASVKVSCTASGFNIKDTYMLWVRQAPGQGLEWMGRIDPANANSRYDPKFQGRVTITADTSTNTAYMELSSLRSEDTAVYYCVDGYMFAYWGQGTLVTVSS
VL: DVVMTQTPLSLSVTPGQPASISCKSSQSLLYSNGKTYLHWLLQKPGQSPQRLIYLNSRLHSGVPDRFSGSGSGTDFTLKISRVEAEDVGVYYCVQGTHFPLTFGQGTKLEIKR
notes: copies: 1 + 1
Turning to B2, the EC50 in assay [1] turned out to be 8.3 nM; in assay [2], 4.4 nM.

B3: Humanized & affinity matured 10F7-M10 Fab clone L1+2-17 (Fab)
heavy: EVQLLESGGGLVQPGKSLRLSCKASGYTFNSYFMHWVRQAPGKGLEWVGMIRPNGGTTDYNEKFKNRFTLSVDKSKNTAYLQMNSLRAEDTAVYYCARWEGSYYALDYWGQGTASTKGPSVFPLAPSSKSTSGGTAALGCLVKDYFPEPVTVSWNSGALTSGVHTFPAVLQSSGLYSLSSVVTVPSSSLGTQTYICNVNHKPSNTKVDKKVEPKSC
light: EITLTQSPATLSLSPGERATLSCRASSNVYFMYWYQQKPGQAPRLWIHHTSDLASGIPDRFSGSGSGTDYTLTISRLEPEDFAVYYCQQFTSSPYTFGQGTKVEVKRTVAAPSVFIFPPSDEQLKSGTASVVCLLNNFYPREAKVQWKVDNALQSGNSQESVTEQDSKDSTYSLSSTLTLSKADYEKHKVYACEVTHQGLSSPVTKSFNRGEC
notes: Soluble Fab from HEK cells; all domains other than VL are the same as wild-type 10F7-M10; also called YF-HH-D
For the molecule B3, the Kd in assay [3] is 5.97 nM; in assay [6] it was 6 nM. The koff was found to be 0.00093 s⁻¹ in assay [4] and 0.000931 s⁻¹ in assay [5]. The kon in assay [4] turned out to be 160000 M⁻¹ s⁻¹; in assay [5], 156000 M⁻¹ s⁻¹. In addition, it took 3.4 nM to reach a half-maximal effect in assay [7] (EC50).

B4: Humanized & affinity matured 10F7-M10 Fab clone L1+2-24 (Fab)
heavy: EVQLLESGGGLVQPGKSLRLSCKASGYTFNSYFMHWVRQAPGKGLEWVGMIRPNGGTTDYNEKFKNRFTLSVDKSKNTAYLQMNSLRAEDTAVYYCARWEGSYYALDYWGQGTASTKGPSVFPLAPSSKSTSGGTAALGCLVKDYFPEPVTVSWNSGALTSGVHTFPAVLQSSGLYSLSSVVTVPSSSLGTQTYICNVNHKPSNTKVDKKVEPKSC
light: EITLTQSPATLSLSPGERATLSCRASSNVQQMYWYQQKPGQAPRLWIHHTSILASGIPDRFSGSGSGTDYTLTISRLEPEDFAVYYCQQFTSSPYTFGQGTKVEVKRTVAAPSVFIFPPSDEQLKSGTASVVCLLNNFYPREAKVQWKVDNALQSGNSQESVTEQDSKDSTYSLSSTLTLSKADYEKHKVYACEVTHQGLSSPVTKSFNRGEC
notes: Soluble Fab from HEK cells; all domains other than VL are the same as wild-type 10F7-M10; also called QQ-HH-I
Turning to B4, the Kd in assay [3] and in assay [6] was 21 nM each time. Besides, the values for the koff in assay [4] and in assay [5] were 0.008 s⁻¹ and 0.00802 s⁻¹, respectively. Besides, the on-rate constant (kon) was 380000 M⁻¹ s⁻¹ in assay [4] and 382000 M⁻¹ s⁻¹ in assay [5]. For the same molecule, the EC50 in assay [7] came out at 23 nM.

B5: Humanized & affinity matured 10F7-M10 Fab clone L1+2-28 (Fab)
heavy: EVQLLESGGGLVQPGKSLRLSCKASGYTFNSYFMHWVRQAPGKGLEWVGMIRPNGGTTDYNEKFKNRFTLSVDKSKNTAYLQMNSLRAEDTAVYYCARWEGSYYALDYWGQGTASTKGPSVFPLAPSSKSTSGGTAALGCLVKDYFPEPVTVSWNSGALTSGVHTFPAVLQSSGLYSLSSVVTVPSSSLGTQTYICNVNHKPSNTKVDKKVEPKSC
light: EITLTQSPATLSLSPGERATLSCRASSNVYWMYWYQQKPGQAPRLWIHHTSDLASGIPDRFSGSGSGTDYTLTISRLEPEDFAVYYCQQFTSSPYTFGQGTKVEVKRTVAAPSVFIFPPSDEQLKSGTASVVCLLNNFYPREAKVQWKVDNALQSGNSQESVTEQDSKDSTYSLSSTLTLSKADYEKHKVYACEVTHQGLSSPVTKSFNRGEC
notes: Soluble Fab from HEK cells; all domains other than VL are the same as wild-type 10F7-M10; also called YW-HH-D
Consider B5, for which the Kd was 3.49 nM in assay [3] and 3.5 nM in assay [6]. Moreover, the koff in assay [4] stood at 0.0021 s⁻¹; in assay [5], 0.00214 s⁻¹. Besides, the kon in assay [4] is 610000 M⁻¹ s⁻¹; in assay [5] it was 614000 M⁻¹ s⁻¹. For the same molecule, the midpoint of the response in assay [7], the EC50, lay at 3.7 nM.

B6: Humanized & affinity matured 10F7-M10 Fab clone L1+2-35 (Fab)
heavy: EVQLLESGGGLVQPGKSLRLSCKASGYTFNSYFMHWVRQAPGKGLEWVGMIRPNGGTTDYNEKFKNRFTLSVDKSKNTAYLQMNSLRAEDTAVYYCARWEGSYYALDYWGQGTASTKGPSVFPLAPSSKSTSGGTAALGCLVKDYFPEPVTVSWNSGALTSGVHTFPAVLQSSGLYSLSSVVTVPSSSLGTQTYICNVNHKPSNTKVDKKVEPKSC
light: EITLTQSPATLSLSPGERATLSCRASSNVYWMYWYQQKPGQAPRLWIHHTSELASGIPDRFSGSGSGTDYTLTISRLEPEDFAVYYCQQFTSSPYTFGQGTKVEVKRTVAAPSVFIFPPSDEQLKSGTASVVCLLNNFYPREAKVQWKVDNALQSGNSQESVTEQDSKDSTYSLSSTLTLSKADYEKHKVYACEVTHQGLSSPVTKSFNRGEC
notes: Soluble Fab from HEK cells; all domains other than VL are the same as wild-type 10F7-M10; also called YW-HH-E
For the molecule B6, the Kd in assay [3] came out at 16.7 nM; in assay [6], 17 nM. In addition, the koff was determined as 0.0014 s⁻¹ in assay [4] and 0.00136 s⁻¹ in assay [5]. Further, the results for the kon in assay [4] and in assay [5] were 81000 M⁻¹ s⁻¹ and 81300 M⁻¹ s⁻¹, respectively. Further, the midpoint of the response in assay [7], the EC50, lay at 4.6 nM.

B7: Humanized & affinity matured 10F7-M10 Fab clone L1+2-39 (Fab)
heavy: EVQLLESGGGLVQPGKSLRLSCKASGYTFNSYFMHWVRQAPGKGLEWVGMIRPNGGTTDYNEKFKNRFTLSVDKSKNTAYLQMNSLRAEDTAVYYCARWEGSYYALDYWGQGTASTKGPSVFPLAPSSKSTSGGTAALGCLVKDYFPEPVTVSWNSGALTSGVHTFPAVLQSSGLYSLSSVVTVPSSSLGTQTYICNVNHKPSNTKVDKKVEPKSC
light: EITLTQSPATLSLSPGERATLSCRASSNVFFMYWYQQKPGQAPRLWIHHTSVLASGIPDRFSGSGSGTDYTLTISRLEPEDFAVYYCQQFTSSPYTFGQGTKVEVKRTVAAPSVFIFPPSDEQLKSGTASVVCLLNNFYPREAKVQWKVDNALQSGNSQESVTEQDSKDSTYSLSSTLTLSKADYEKHKVYACEVTHQGLSSPVTKSFNRGEC
notes: Soluble Fab from HEK cells; all domains other than VL are the same as wild-type 10F7-M10; also called FF-HH-V
With B7, the values for the Kd in assay [3] and in assay [6] were 4.82 nM and 4.8 nM, respectively. Besides, the values for the koff in assay [4] and in assay [5] were 0.0012 s⁻¹ and 0.00121 s⁻¹, respectively. The on-rate (kon) in assay [4] and in assay [5] was 250000 M⁻¹ s⁻¹ throughout. The same molecule registered an EC50 in assay [7] of 2.7 nM.

B8: Humanized & affinity matured 10F7-M10 Fab clone L1+2-21 (Fab)
heavy: EVQLLESGGGLVQPGKSLRLSCKASGYTFNSYFMHWVRQAPGKGLEWVGMIRPNGGTTDYNEKFKNRFTLSVDKSKNTAYLQMNSLRAEDTAVYYCARWEGSYYALDYWGQGTASTKGPSVFPLAPSSKSTSGGTAALGCLVKDYFPEPVTVSWNSGALTSGVHTFPAVLQSSGLYSLSSVVTVPSSSLGTQTYICNVNHKPSNTKVDKKVEPKSC
light: EITLTQSPATLSLSPGERATLSCRASSNVYFMYWYQQKPGQAPRLWIHHTSVLASGIPDRFSGSGSGTDYTLTISRLEPEDFAVYYCQQFTSSPYTFGQGTKVEVKRTVAAPSVFIFPPSDEQLKSGTASVVCLLNNFYPREAKVQWKVDNALQSGNSQESVTEQDSKDSTYSLSSTLTLSKADYEKHKVYACEVTHQGLSSPVTKSFNRGEC
notes: Soluble Fab from HEK cells; all domains other than VL are the same as wild-type 10F7-M10; also called YF-HH-V
Consider B8, for which the Kd in assay [3] came out at 5.12 nM; in assay [6] it was 5.1 nM. The koff in assay [4] was 0.0013 s⁻¹; in assay [5], 0.00132 s⁻¹. Besides, the kon in assay [4] stood at 260000 M⁻¹ s⁻¹; in assay [5], 257000 M⁻¹ s⁻¹. This molecule had an EC50 in assay [7] of 3.7 nM.

The term EC50 denotes the concentration at which the effect is half-maximal. Read a low EC50 as higher potency in that assay. By koff is commonly meant the first-order rate constant of dissociation. As usually defined, the kon is a measure of how fast the partners come together.
